This passage reports HIV-infected cells killed results from patent US20170044240A1.

In the test the target is HIV envelope protein on HIV-infected cells (HIV). Nature of the test: cell-based or functional assay.

In turn, “anti-HIV chimeric antigen receptor comprising scFv derived from PGT128 (PGT128 CAR)” showed an HIV-infected cells killed at 48 hours, against CARCD19 T-cells of 56%.
